Reference: patent US6805861B2, “Immunotherapy using cytotoxic T lymphocytes (CTL)” (Imperial College Innovations Limited, priority 1996, dated 2004)
Like-named read-outs stand apart in the source and are kept apart here.

What was measured:
[1] = target: T1, H-2K^b class I molecules (Mus musculus, UniProt P01901); experiment: Binding of peptide to H-2K^b class I molecules
T1 sequence (P01901 22-369): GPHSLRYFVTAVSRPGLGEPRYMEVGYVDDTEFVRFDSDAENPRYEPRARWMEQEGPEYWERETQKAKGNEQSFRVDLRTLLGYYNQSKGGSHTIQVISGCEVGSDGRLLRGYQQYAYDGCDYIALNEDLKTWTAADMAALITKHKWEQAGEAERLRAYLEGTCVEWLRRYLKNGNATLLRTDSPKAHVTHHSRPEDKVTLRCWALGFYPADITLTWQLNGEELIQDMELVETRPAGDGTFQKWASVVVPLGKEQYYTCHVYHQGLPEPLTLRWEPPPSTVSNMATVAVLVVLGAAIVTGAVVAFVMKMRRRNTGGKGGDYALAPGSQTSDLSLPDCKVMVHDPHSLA
T1 sequence (P01887 21-119 partner): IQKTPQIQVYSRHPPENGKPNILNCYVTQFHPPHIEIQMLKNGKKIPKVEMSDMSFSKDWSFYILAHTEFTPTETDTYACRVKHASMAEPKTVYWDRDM
Procedure: Peptides: The mdm100 peptide corresponds to amino acid 100-107 (YAMIYRNL; SEQ ID No 1) of the murine mdm-2 protein. […] All peptides used in this study were synthesised by the central peptide synthesis laboratory of the Imperial Cancer Research Fund, London, using finoc chemistry. The quality of the peptides were assessed by HPLC analysis and the expected molecular weight was observed using MALDI mass-spectrometry. The peptides were dissolved in phosphate buffered saline (pH 7.4) to give a concentration of 2 mM and stored at −20° C.

[2] = CTL stimulation by mdm100 peptide in C57BL/6 mice; assay type: in vivo, mouse; conditions: self-restricted repertoire

With YAMIYRNL [mdm100 peptide] as the sequence, how does the “binding to H-2K^b class I molecules” value [1] read?
Its value is “bound efficiently”.

What about the “binding to H-2K^b class I molecules” value ([1]; listed as mdm100) of the same sequence?
The value was “efficiently bound”.

And the “CTL stimulated by the peptide in C57BL/6 mice (H-2^b)” value [2]?
Its value is “only stimulated low avidity CTL”.
